The text below walks through data of US20060239990A1 (published 2006).

In one test the target is T1, RelA (p65) in 293 cells (UniProt Q04206 1-551).
T1 construct: also called endogenous p65
Briefly: immunoprecipitation with anti-HA antibody from transfected 293 cells, immunoblot for p65. From the text:
(§1) To map IκB-α domains that interacted with PRMT2, 293 cells were transfected with HA-tagged PRMT2 (FIG. 5C) and His-tagged derivatives of the indicated IκB-α expression vectors (FIG. 5B) as indicated. 24 hrs later cells were harvested in cell lysis buffer and cell lysates were immunoprecipitated with agarose-conjugated antibody to His (IκB-α) (FIG. 5D, lanes 1-4) and HA (PRMT2) (FIG. 5D, lanes 5-6), fractionated by SDS-PAGE and analyzed by immunoblotting with antibody to HA to detect PRMT2 ((FIG. 5D lanes 1, 2 and lanes 5, 6) and His (FIG. 5D, lanes 3, 4). To map the region of PRMT2 that interacted with endogenous IκB-α and p65, 293 cells were transfected with HA-tagged PRMT2 (FIG. 5C) derivatives as indicated. Cells were harvested 24 hrs after transfection in cell lysis buffer, immunoprecipitated with agarose-conjugated antibody to HA to detect PRMT2 and derivatives (FIG. 5E, lanes 7-15), fractionated by SDS-PAGE and analyzed by immunoblotting with antibody to p65 (FIG. 5E, lanes 7-9), IκB-α (FIG. 5E, lanes 10-12) or HA (FIG. 5E, lanes 13-15).
A polyclonal antibody to recombinant PRMT2 was used to examine the association between endogenous PRMT2 and IκB-α in vivo. […] The domain of IκB-α required for association with PRMT2 was mapped using in vivo immunoprecipitation assays where HA-tagged PRMT2 was coexpressed with truncation mutants of His-tagged IκB-α (FIG. 5B) in 293 cells. The ankyrin domain was both necessary and sufficient for this association (FIG. 5D, lanes 1 and 2). The domain of PRMT2 that interacted with endogenous IκB-α was mapped by immunoprecipitation following expression HA-tagged PRMT2 truncation mutants (FIG. 5C). […] When the ratios of PRMT2 or PRMT2-A binding to IκB-α were compared, both interacted with IκB-α with similar affinity.

Test [1] has as its target T2, IκB-α, endogenous in 293 cells (human, UniProt P25963 1-317).
T2 construct: also called endogenous IκB-α
T2 sequence (looked up): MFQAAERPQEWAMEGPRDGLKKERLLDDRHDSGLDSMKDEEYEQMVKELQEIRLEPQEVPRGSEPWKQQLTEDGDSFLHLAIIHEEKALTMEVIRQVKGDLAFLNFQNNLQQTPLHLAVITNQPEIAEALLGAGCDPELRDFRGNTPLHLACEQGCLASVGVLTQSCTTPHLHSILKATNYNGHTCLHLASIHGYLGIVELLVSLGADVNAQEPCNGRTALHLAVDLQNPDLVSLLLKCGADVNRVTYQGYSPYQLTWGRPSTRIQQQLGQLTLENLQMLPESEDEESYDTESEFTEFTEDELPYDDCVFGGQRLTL
Briefly: immunoprecipitation with anti-HA antibody from transfected 293 cells, immunoblot for IκB-α.
Description: as §1
(§2) A polyclonal antibody to recombinant PRMT2 was used to examine the association between endogenous PRMT2 and IκB-α in vivo. […] The domain of IκB-α required for association with PRMT2 was mapped using in vivo immunoprecipitation assays where HA-tagged PRMT2 was coexpressed with truncation mutants of His-tagged IκB-α (FIG. 5B) in 293 cells. […]

The target in test [2] is mouse STAT3 (endogenous in GT1-7 cells and VSMC, or expressed from mouse STAT3 pcDNA3 in HEK293 cells) (mouse, UniProt P42227 2-770). Description: immunoprecipitation with anti-STAT3 antibody from GT1-7 cell extracts with or without leptin (100 nM), immunoblot with anti-PRMT-2 antibody. As for the experimental part: A mouse hypothalamic cell line, GT1-7, was established that expressed both STAT3 and PRMT-2 (FIG. 21B), and used as a cell model for the study of leptin signaling. To further examine whether leptin stimulated endogenous interaction between PRMT-2 and STAT3, extracts from the cells that were untreated or treated with mouse leptin (100 nM) were subjected to immunoprecipitation with anti-STAT3 antibody, followed by immunoblotting with anti-PRMT-2 antibody. […] However, treatment with leptin enhanced that amount PRMT-2 that co-precipitated with STAT3 (FIG. 21B, lane 3). PRMT-2 was not detectable in immunoprecipitates obtained with preimmune rabbit IgG (FIG. 21B, lane 1).
mouse STAT3 (endogenous in GT1-7 cells and VSMC, or expressed from mouse STAT3 pcDNA3 in HEK293 cells), sequence (P42227 2-770 limits assumed): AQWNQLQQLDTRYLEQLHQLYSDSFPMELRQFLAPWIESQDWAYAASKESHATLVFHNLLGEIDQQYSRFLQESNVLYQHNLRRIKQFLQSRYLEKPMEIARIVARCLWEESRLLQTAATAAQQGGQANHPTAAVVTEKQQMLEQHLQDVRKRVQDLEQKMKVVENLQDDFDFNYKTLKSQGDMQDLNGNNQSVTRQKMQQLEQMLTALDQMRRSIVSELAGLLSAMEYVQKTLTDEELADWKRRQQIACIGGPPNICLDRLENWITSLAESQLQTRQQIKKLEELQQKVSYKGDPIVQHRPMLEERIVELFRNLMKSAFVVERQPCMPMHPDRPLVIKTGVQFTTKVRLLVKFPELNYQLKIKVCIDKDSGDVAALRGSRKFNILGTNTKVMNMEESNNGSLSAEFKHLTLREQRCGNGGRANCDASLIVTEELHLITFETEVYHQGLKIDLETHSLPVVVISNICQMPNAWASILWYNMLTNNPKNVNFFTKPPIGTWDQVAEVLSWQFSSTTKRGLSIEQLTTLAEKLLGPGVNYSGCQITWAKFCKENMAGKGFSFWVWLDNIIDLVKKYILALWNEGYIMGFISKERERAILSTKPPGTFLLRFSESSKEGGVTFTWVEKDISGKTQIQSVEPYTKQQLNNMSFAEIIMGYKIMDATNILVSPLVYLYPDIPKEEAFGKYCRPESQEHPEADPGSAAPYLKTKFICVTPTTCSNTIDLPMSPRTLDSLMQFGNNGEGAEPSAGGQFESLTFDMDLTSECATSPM
(A western blot detects proteins with antibodies after separation by electrophoresis.)

Test [3] concerns the target T3, mouse retinoblastoma protein (RB), endogenous in MEFs (mouse, UniProt P13405 2-921).
T3 sequence (looked up): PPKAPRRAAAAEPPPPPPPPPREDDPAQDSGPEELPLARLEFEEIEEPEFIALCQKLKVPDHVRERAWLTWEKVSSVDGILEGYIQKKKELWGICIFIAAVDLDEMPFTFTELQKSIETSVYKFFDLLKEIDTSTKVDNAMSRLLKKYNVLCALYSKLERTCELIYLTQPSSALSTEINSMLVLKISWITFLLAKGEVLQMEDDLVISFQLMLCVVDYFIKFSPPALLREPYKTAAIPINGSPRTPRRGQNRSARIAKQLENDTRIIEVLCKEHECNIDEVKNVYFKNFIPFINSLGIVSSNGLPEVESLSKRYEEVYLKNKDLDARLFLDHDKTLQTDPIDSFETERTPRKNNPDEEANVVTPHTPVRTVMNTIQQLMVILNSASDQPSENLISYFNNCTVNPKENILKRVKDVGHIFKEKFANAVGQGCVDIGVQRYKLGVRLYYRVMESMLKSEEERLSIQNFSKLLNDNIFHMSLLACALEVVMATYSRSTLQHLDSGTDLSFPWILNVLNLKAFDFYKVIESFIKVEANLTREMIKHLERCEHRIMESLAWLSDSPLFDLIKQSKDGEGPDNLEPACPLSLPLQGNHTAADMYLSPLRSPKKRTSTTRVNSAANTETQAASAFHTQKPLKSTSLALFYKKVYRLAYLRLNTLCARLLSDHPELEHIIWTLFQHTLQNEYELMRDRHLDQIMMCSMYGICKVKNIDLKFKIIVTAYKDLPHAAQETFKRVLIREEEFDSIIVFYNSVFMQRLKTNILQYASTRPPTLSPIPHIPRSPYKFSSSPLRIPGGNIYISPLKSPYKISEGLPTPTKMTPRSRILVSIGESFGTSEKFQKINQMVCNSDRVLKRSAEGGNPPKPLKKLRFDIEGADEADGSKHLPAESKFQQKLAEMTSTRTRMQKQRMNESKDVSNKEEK
Briefly: cell-based or functional assay.

For test [4], the target named is T2, IκB-α, endogenous in 293 cells. Briefly: immunoprecipitation with anti-HA antibody from transfected 293 cells, immunoblot for endogenous IκB-α.
Description: as §1, §2

T1 sequence (Q04206 whole entry): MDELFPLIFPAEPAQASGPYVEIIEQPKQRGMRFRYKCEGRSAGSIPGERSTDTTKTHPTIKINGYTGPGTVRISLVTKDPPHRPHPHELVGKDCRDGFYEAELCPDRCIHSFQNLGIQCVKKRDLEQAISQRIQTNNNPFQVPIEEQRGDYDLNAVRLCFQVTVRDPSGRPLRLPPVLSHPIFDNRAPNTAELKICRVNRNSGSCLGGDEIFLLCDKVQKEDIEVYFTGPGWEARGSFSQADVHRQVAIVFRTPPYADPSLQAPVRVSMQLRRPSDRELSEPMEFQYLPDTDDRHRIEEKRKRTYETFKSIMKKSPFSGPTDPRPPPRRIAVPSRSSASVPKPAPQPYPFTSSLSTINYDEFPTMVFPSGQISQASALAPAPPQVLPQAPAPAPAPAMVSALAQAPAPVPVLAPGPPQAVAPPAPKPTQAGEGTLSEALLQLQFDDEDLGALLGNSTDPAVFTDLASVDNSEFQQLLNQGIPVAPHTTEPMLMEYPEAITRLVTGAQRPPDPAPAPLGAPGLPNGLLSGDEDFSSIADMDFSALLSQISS

B1: HA-tagged PRMT2-N (first 95 amino acids of PRMT2) (enzyme)
chain: MATSGDCPRSESQGEEPAECSEAGLLQEGVQPEEFVAIADYAATDETQLSFLRGEKILILRQTTADWWWGERAGCCGYIPANHVGKHVDEYDPED
notes: Expressed by transfection in 293 cells; not shown: HA tag at the C-terminus
Take B1: the binding result (with RelA (p65) in 293 cells; in test [1]) was “no binding” each time.

B2: mouse PRMT2 (untagged; endogenous in NIH3T3 cells, MEFs, GT1-7 cells and VSMC, or expressed from mouse PRMT2 cDNA in HEK293 cells) (enzyme, UniProt Q9R144 1-448, looked up)
chain: MEAPGEGPCSESQVIPVLEEDPVDYGCEMQLLQDGAQLQLQLQPEEFVAIADYTATDETQLSFLRGEKILILRQTTADWWWGERAGCCGYIPANHLGKQLEEYDPEDTWQDEEYFDSYGTLKLHLEMLADQPRTTKYHSVILQNKESLKDKVILDVGCGTGIISLFCAHHARPKAVYAVEASDMAQHTSQLVLQNGFADTITVFQQKVEDVVLPEKVDVLVSEWMGTCLLFEFMIESILYARDTWLKGDGIIWPTTAALHLVPCSAEKDYHSKVLFWDNAYEFNLSALKSLAIKEFFSRPKSNHILKPEDCLSEPCTILQLDMRTVQVPDLETMRGELRFDIQKAGTLHGFTAWFSVYFQSLEEGQPQQVVSTGPLHPTTHWKQTLFMMDDPVPVHTGDVVHGFCCVTKKSGMEKAHVCLSELGCHVRTRSHVSTELETGSFRSGGDS
notes: also called endogenous PRMT2
As to B2, in test [2], the binding result was “binds”. Besides, the “E2F reporter activity (E2F4B-Luc) in MEFs” value in test [3] was roughly 3 fold.

B3: HA-tagged PRMT2-A (alternative splice variant, first 218 amino acids of PRMT2) (enzyme)
chain: MATSGDCPRSESQGEEPAECSEAGLLQEGVQPEEFVAIADYAATDETQLSFLRGEKILILRQTTADWWWGERAGCCGYIPANHVGKHVDEYDPEDTWQDEEYFGSYGTLKLHLEMLADQPRTTKYHSVILQNKESLTDKVILDVGCGTGIISLFCAHYARPRAVYAVEASEMAQHTGQLVLQNGFADIITVYQQKVEDVVLPEKVDVLVSEWMGTCLL
notes: as for B1
As to B3, the figures for the binding result (in test [4]; with RelA (p65) in 293 cells) were “binds” and “no binding”, respectively.
